The values that follow come from paper PMC3351461.

Test [1] has as its target Wnt3a (human (endogenous in H322 and H460)) (UniProt P56704).
For test [2] the target is unchanged. The source holds these as a separate data set.

Sequence of UniProt P56704 (P56704 19-352): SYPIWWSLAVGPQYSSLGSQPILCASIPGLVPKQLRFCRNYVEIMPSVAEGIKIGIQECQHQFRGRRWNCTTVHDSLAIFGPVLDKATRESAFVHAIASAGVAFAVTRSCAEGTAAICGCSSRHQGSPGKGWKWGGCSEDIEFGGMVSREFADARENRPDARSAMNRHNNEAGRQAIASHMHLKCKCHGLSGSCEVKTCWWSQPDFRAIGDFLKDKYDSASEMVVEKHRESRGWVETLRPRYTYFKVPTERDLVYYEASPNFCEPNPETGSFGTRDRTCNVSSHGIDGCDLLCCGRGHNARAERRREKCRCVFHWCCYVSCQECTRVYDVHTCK

For the substance “soluble LRP6 receptor (sLRP6E1E2) (domain or fragment)”, in test [1], the TOPflash luciferase activity in H322 cells with recombinant Wnt3a (100 ng/ml), lower in dE1-k35/sLRP6E1E2-transduced than in dE1-k35/LacZ-transduced cells is 52%; the TOPflash luciferase activity in H322 cells without added Wnt3a, reduction by dE1-k35/sLRP6E1E2 compared with dE1-k35/LacZ turned out to be 12%; the TOPflash luciferase activity in H460 cells with recombinant Wnt3a (100 ng/ml), lower in dE1-k35/sLRP6E1E2-transduced than in dE1-k35/LacZ-transduced cells stood at 48%; the TOPflash luciferase activity in H460 cells without added Wnt3a, reduction by dE1-k35/sLRP6E1E2 compared with dE1-k35/LacZ is 48%. Also, in test [2], the nuclear beta-catenin (immunofluorescence, quantified) in H322 cells with Wnt3a, decrease in dE1-k35/sLRP6E1E2-transduced cells compared with dE1-k35/LacZ came out at 98.1%.
